From patent JP2007530675A (dated 2007) come the findings set out here.

For assay [1], the target named is T1, human CS1-Fc fusion protein (Biacore analyte) (human, UniProt Q9NQ25 23-226, limits assumed).
T1 construct: kept apart; also called CS-Fc; not shown: Fc part
Description: SPR (BIAcore 2000), antibody immobilised, CS1-Fc as analyte. (In general: In SPR one partner is held on a chip, and binding of the other changes the refractive index at the surface.)

Assay [2] has as its target T2, full-length wild-type human CS1 (human, UniProt Q9NQ25 23-335).
T2 construct: Native CS1 on K562 and Daudi cells, myeloma and B-cell lines, tonsil/synovial and patient plasma cells; also called SLAMF7; 19A
Briefly: FACS on K562 and Daudi cells.

In assay [3] the target is T3, hu25/mu75 chimeric CS1-Fc (human/mouse chimera; human, UniProt P01857-1 99-330 = IgG part, limits assumed).
T3 construct: domain: Fc
T3 sequence (P01857 other isoform, or with tags, fused parts or gaps mutant limits assumed): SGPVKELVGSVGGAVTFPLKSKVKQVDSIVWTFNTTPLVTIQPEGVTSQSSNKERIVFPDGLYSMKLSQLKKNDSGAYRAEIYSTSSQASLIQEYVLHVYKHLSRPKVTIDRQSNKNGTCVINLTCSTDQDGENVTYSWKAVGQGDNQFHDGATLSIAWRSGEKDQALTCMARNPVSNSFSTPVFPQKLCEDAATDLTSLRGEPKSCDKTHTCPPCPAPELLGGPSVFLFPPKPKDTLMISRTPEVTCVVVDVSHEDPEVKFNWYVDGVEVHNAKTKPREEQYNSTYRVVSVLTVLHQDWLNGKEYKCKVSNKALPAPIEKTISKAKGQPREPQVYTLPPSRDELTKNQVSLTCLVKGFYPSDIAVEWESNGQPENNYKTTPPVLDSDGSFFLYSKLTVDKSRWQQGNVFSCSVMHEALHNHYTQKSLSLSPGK
Description: sandwich ELISA, captured chimeric CS1-Fc. A general note: ELISA stands for enzyme-linked immunosorbent assay.

Assay [4] deals with T4, mu25/hu75 chimeric CS1-Fc (human/mouse chimera; human, UniProt P01857-1 99-330 = IgG part, limits assumed).
T4 construct: domain: Fc
T4 sequence (P01857 other isoform, or with tags, fused parts or gaps mutant limits assumed): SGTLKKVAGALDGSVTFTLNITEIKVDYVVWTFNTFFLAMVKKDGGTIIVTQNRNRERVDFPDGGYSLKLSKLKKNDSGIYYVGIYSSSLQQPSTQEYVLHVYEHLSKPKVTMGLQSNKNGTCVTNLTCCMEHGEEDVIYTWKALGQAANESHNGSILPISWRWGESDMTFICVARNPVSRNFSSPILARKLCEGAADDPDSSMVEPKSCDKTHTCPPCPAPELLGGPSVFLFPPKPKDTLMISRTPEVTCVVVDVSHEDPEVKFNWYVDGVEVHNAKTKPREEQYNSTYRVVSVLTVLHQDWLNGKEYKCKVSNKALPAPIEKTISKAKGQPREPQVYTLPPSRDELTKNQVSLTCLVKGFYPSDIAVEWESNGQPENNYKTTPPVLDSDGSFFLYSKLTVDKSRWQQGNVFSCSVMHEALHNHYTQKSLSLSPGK
Briefly: sandwich ELISA, captured chimeric CS1-Fc.

Assay [5] has as its target T5, CS1 ECD-Fcγ3 fusion protein (human, UniProt Q9NQ25 23-226).
T5 construct: also called CS1-γ3; CS1-Fc-γ3; not shown: constant region of human IgG3 (human Fc-γ3) from the vector
Description: ELISA on CS1-γ3 fusion protein.

The target of assay [6] is T6, CS1 ECD-myc-GPI (human, UniProt Q9NQ25 23-226, GPI linkage at the C-terminus).
T6 construct: also called NSO-CS1; not shown: myc tag and GPI linkage signal of the myc-GPI vector
Description: FACS on NSO-CS1 transfectants.

The target of assay [7] is T5, CS1 ECD-Fcγ3 fusion protein. Description: direct binding ELISA, plate coated with 1 μg/ml soluble human CS1-human Fcγ3 fusion protein.
Assay [8] has as its target human CS1-Fc fusion protein (Biacore analyte) (human) (UniProt Q9NQ25). Briefly: SPR (BIAcore 2000), antibody immobilised, CS1-Fc as analyte, bivalent analyte model.
The target of assay [9] is T6, CS1 ECD-myc-GPI. Briefly: cell-based or functional assay.

B1: Luc34 (antibody, V domains shown)
VH: QVQLQQSGAELARPGASVKLSCKASGYTFTSYWMQWVKQRPGQGLEWIGAIYPGDGDTRYTQKFKGKATLTADKSSSTAYMQLSSLASEDSAVYYCARGKVYYGSNPFAYWGQGTLVTVSA
VL: DIQMTQSSSYLSVSLGGRVTITCKASDHINNWLAWYQQKPGNAPRLLISGATSLETGVPSRFSGSGSGKDYTLSITSLQTEDVATYYCQQYWSTPWTFGGGTKLEIK
notes: mouse anti-human CS1 monoclonal; also called Luc34.1
Take B1: the binding result in assay [1] is “binds”; in assay [2], “binds”; in assay [3] it was “no binding (tested: 2 μg/ml)”; in assay [4], “no binding (tested: 2 μg/ml)”; in [5], “binds”; with CS1 ECD-myc-GPI [6] it was “binds”.

B2: HuLuc63 (antibody, human IgG1, V domains shown)
VH: EVQLVESGGGLVQPGGSLRLSCAASGFDFSRYWMSWVRQAPGKGLEWIGEINPDSSTINYAPSLKDKFIISRDNAKNSLYLQMNSLRAEDTAVYYCARPDGNYWYFDVWGQGTLVTVSS
VL: DIQMTQSPSSLSASVGDRVTITCKASQDVGIAVAWYQQKPGKVPKLLIYWASTRHTGVPDRFSGSGSGTDFTLTISSLQPEDVATYYCQQYSSYPYTFGQGTKVEIK
notes: human IgG1/κ, transiently expressed in 293-H cells; also called humanized Luc63
Usually EC50 stands for the concentration that produces a half-maximal response. High values mean a less potent agent, low ones a more potent agent. On to B2, for which the EC50 in assay [7] was determined as 0.0701 µg/mL.

B3: Luc90 (antibody, V domains shown)
VH: QVQLQQPGAELVRPGASVKLSCKASGYSFTTYWMNWVKQRPGQGLEWIGMIHPSDSETRLNQKFKDKATLTVDKSSSTAYMQLSSPTSEDSAVYYCARSTMIATRAMDYWGQGTSVTVSS
VL: DIVMTQSQKSMSTSVGDRVSITCKASQDVITGVAWYQQKPGQSPKLLIYSASYRYTGVPDRFTGSGSGTDFTFTISNVQAEDLAVYYCQQHYSTPLTFGAGTKLELK
notes: mouse anti-human CS1 monoclonal, IgG2b; also called Luc90.H1; Luc90H1
For B3, the binding result in [3] is reported as “no binding (tested: 2 μg/ml)”. In addition, in [4], the binding result is recorded as “no binding (tested: 2 μg/ml)”. In [8], this molecule registered a fold higher binding affinity than Luc34.1 of 28 fold and a fold higher binding affinity than Luc63.2 of 5.5 fold. The “細胞傷害性(%) (ADCC, LDH release, PBMC effectors 20:1)” value with CS1 ECD-myc-GPI [9] is about 50%.

B4: Luc63 (antibody, V domains shown)
VH: EVKLLESGGGLVQPGGSLKLSCAASGFDFSRYWMSWVRQAPGKGLEWIGEINPDSSTINYTPSLKDKFIISRDNAKNTLYLQMSKVRSEDTALYYCARPDGNYWYFDVWGAGTTVTVSS
VL: DIVMTQSHKFMSTSVGDRVSITCKASQDVGIAVAWYQQKPGQSPKLLIYWASTRHTGVPDRFTGSGSGTDFTLTISNVQSEDLADYFCQQYSSYPYTFGGGTKLEIK
notes: mouse anti-human CS1 monoclonal, IgG2a; also called MuLuc63; muLuc63
In turn, B4 registered an EC50 in assay [7] of 0.0661 µg/mL.

B5: Luc69 (antibody, V domains shown)
VH: QVQLQQSGPELVKPGASVKISCKASGYAFSNSWMNWVKQRPGQGLEWIGRIYPGDGDTKSNGKFKGKATLTADKSSRAAYMQLSSLTSVDSAVYFCARSTMIMTGAMDYWGQGTSVTVSS
VL: DIVMTQSHKFMSTSVGDRVIITCKASQDVSTAVAWYQQKPGQSPKLLIYSASFRYTGVPDRFTGSGSGTDFTFTVSSVQAEDLAVYYCQQHYSTPPYTFGGGTKLEIK
notes: mouse anti-human CS1 monoclonal
As for B5, the binding result in [3] and in assay [4] was “no binding (tested: 2 μg/ml)” in each case.
